{"source": "patent US20210130436A1", "about": "(published 2021)", "binders": {"B1": {"name": "variant CD80 IgV-Fc E35D/D46E/M47V/L97Q (Fc fusion, not shown: a dimerising Fc or GST)", "chain": "VIHVTKEVKEVATLSCGHNVSVEELAQTRIYWQKDKKMVLTMMSGEVNIWPEYKNRTIFDITNNLSIVILALRPSDEGTYECVVLKYEKDAFKREHQAEVTLSVKAD"}, "B2": {"name": "variant CD80 IgV-Fc E35D/M47V/A71G/L85M/L97Q (Fc fusion, not shown: a dimerising Fc or GST)", "chain": "B1 chain with E46D, A71G, L85M"}, "B3": {"name": "variant CD80 IgV-Fc E35D/M47V/T62A/A71G/V83A/Y87H/L97M (Fc fusion, not shown: a dimerising Fc or GST)", "chain": "B1 chain with E46D, T62A, A71G, V83A, Y87H, Q97M"}, "B4": {"name": "variant CD80 IgV-Fc H18Y/E35D/V68M/L97Q (Fc fusion, not shown: a dimerising Fc or GST)", "chain": "B1 chain with H18Y, E46D, V47M, V68M"}, "B5": {"name": "variant CD80 IgV-Fc H18Y/Y31H/E35D/M47V/A71G/L85Q (Fc fusion, not shown: a dimerising Fc or GST)", "chain": "B1 chain with H18Y, Y31H, E46D, A71G, L85Q, Q97L"}, "B6": {"name": "variant CD80 IgV-Fc Q33L/E35D/M43I/L85Q/R94W (Fc fusion, not shown: a dimerising Fc or GST)", "chain": "B1 chain with Q33L, M43I, E46D, V47M, L85Q, R94W, Q97L"}, "B7": {"name": "variant CD80 IgV-Fc Q33L/E35D/M43V/M47I/A71G (Fc fusion, not shown: a dimerising Fc or GST)", "chain": "B1 chain with Q33L, M43V, E46D, V47I, A71G, Q97L"}, "B8": {"name": "variant CD80 IgV-Fc Q33L/E35D/M47L/A71G/F92S (Fc fusion, not shown: a dimerising Fc or GST)", "chain": "B1 chain with Q33L, E46D, V47L, A71G, F92S, Q97L"}, "B9": {"name": "variant CD80 IgV-Fc Q27L/Q33L/E35D/T41S/M47V/N48K/V68M/L85M (Fc fusion, not shown: small tags and cut ends; a dimerising Fc or GST)", "chain": "B1 chain with Q27L, Q33L, T41S, E46D, N48K, V68M, L85M, Q97L"}, "B10": {"name": "variant CD80 IgV-Fc Q33R/E35D/M38I/M47L/V68M (Fc fusion, not shown: small tags and cut ends; a dimerising Fc or GST)", "chain": "B1 chain with Q33R, M38I, E46D, V47L, V68M, Q97L"}, "B11": {"name": "CD80 E35D/M47V/N48K/V68M/K89N IgV-Fc, GS(G4S)5 linker (Fc fusion, not shown: a dimerising Fc or GST)", "chain": "VIHVTKEVKEVATLSCGHNVSVEELAQTRIYWQKDKKMVLTMMSGDVKIWPEYKNRTIFDITNNLSIMILALRPSDEGTYECVVLKYENDAFKREHLAEVTLSVKADGSGGGGSGGGGSGGGGSGGGGSGGGGS"}}, "note": "Numbering of substitutions follows the chain as printed. Names may count otherwise."}
{"target": "T1, human PD-L1 (CD274), full-length, expressed on the surface of CHO cells (human, UniProt Q9NZQ7 19-290)", "T1 construct": "also called huPD-L1; B7-H1", "T1 sequence (Q9NZQ7 19-290)": "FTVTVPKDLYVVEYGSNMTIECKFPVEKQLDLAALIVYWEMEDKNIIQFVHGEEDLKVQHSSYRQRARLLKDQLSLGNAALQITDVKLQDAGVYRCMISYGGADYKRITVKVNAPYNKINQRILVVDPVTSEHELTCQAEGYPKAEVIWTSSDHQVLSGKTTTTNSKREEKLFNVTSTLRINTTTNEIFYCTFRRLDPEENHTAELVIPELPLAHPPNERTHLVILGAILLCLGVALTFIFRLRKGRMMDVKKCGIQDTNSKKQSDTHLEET", "assay": "flow cytometry on PD-L1 CHO cells; MFI against WT CD80 ECD-Fc (R&D)", "units": {"Fold change to WT": "fold"}}
{"binder": "B1", "Fold change to WT": 2.45}
{"binder": "B2", "Fold change to WT": 7.77}
{"binder": "B3", "Fold change to WT": 9.76}
{"binder": "B4", "Fold change to WT": 15.3}
{"binder": "B5", "Fold change to WT": 9.61}
{"binder": "B6", "Fold change to WT": 3.65}
{"binder": "B7", "Fold change to WT": 9.82}
{"binder": "B8", "Fold change to WT": 3.53}
{"target": "T2, human CTLA4 (huCTLA4), full-length, stably expressed on CHO cells (human, UniProt P16410 36-223)", "T2 construct": "whole, on cells", "T2 sequence (P16410 36-223)": "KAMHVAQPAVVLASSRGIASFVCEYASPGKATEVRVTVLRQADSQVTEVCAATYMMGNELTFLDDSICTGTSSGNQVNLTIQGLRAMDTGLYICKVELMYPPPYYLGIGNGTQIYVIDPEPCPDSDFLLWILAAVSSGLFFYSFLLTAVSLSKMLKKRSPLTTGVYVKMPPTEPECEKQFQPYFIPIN", "assay": "flow cytometry, CHO cells expressing huCTLA4; MFI against WT CD80 of the table", "units": {"Fold change to WT CD80": "fold"}}
{"binder": "B9", "Fold change to WT CD80": 0.1}
{"binder": "B10", "Fold change to WT CD80": 0.1}
{"target": "T3, human PD-L1 (human, UniProt Q9NZQ7 19-290)", "T3 construct": "also called huPD-L1; CD274", "T3 sequence (Q9NZQ7 19-290)": "as the sequence (Q9NZQ7 19-290) above", "assay": "flow cytometry on CHO cells stably expressing PD-L1", "units": {"MFI at 33.3 nM": "MFI"}}
{"binder": "B11", "MFI at 33.3 nM": 22700}
{"target": "T4, human PD-L1 (huPD-L1), full-length, stably expressed on CHO cells (human, UniProt Q9NZQ7 19-290)", "T4 construct": "whole, on cells", "T4 sequence (Q9NZQ7 19-290)": "as above", "assay": "flow cytometry, CHO cells expressing huPD-L1", "units": {"MFI at 33.3 nM": "MFI"}}
{"binder": "B9", "MFI at 33.3 nM": 16500}
{"binder": "B10", "MFI at 33.3 nM": 16500}
{"target": "T4, human PD-L1 (huPD-L1), full-length, …", "assay": "flow cytometry; MFI on PD-L1 CHO cells over MFI on Jurkat cells (CD28)", "units": {"Ratio of PDL1:CD28": "ratio"}}
{"binder": "B9", "Ratio of PDL1:CD28": 1130}
{"binder": "B10", "Ratio of PDL1:CD28": 1110}
{"target": "T1, human PD-L1 (CD274), full-length, …", "assay": "flow cytometry; MFI on PD-L1 CHO cells over MFI on Jurkat cells (CD28)", "units": {"Ratio of PDL1:CD28": "ratio"}}
{"binder": "B1", "Ratio of PDL1:CD28": 52}
{"binder": "B2", "Ratio of PDL1:CD28": 182}
{"binder": "B3", "Ratio of PDL1:CD28": 255}
{"binder": "B4", "Ratio of PDL1:CD28": 407}
{"binder": "B5", "Ratio of PDL1:CD28": 285}
{"binder": "B6", "Ratio of PDL1:CD28": 107}
{"binder": "B7", "Ratio of PDL1:CD28": 275}
{"binder": "B8", "Ratio of PDL1:CD28": 77}
{"target": "T5, human CD28, endogenously expressed on Jurkat/IL2 reporter cells (human, UniProt P10747 19-220)", "T5 construct": "This is the endogenous CD28 of Jurkat cells", "assay": "flow cytometry, Jurkat/IL2 reporter cells (endogenous CD28), 33.3 nM Fc fusion, PE anti-human Fc", "units": {"MFI at 33.3 nM": "MFI"}}
{"binder": "B1", "MFI at 33.3 nM": 371}
{"binder": "B2", "MFI at 33.3 nM": 339}
{"binder": "B3", "MFI at 33.3 nM": 305}
{"binder": "B4", "MFI at 33.3 nM": 299}
{"binder": "B5", "MFI at 33.3 nM": 268}
{"binder": "B6", "MFI at 33.3 nM": 272}
{"binder": "B7", "MFI at 33.3 nM": 284}
{"binder": "B8", "MFI at 33.3 nM": 366}
{"target": "T5, human CD28, endogenously expressed on …", "assay": "flow cytometry on Jurkat cells (CD28); MFI against WT CD80 ECD-Fc (R&D)", "units": {"Fold change to WT": "fold"}}
{"binder": "B1", "Fold change to WT": 0.05}
{"binder": "B2", "Fold change to WT": 0.04}
{"binder": "B3", "Fold change to WT": 0.04}
{"binder": "B4", "Fold change to WT": 0.04}
{"binder": "B5", "Fold change to WT": 0.04}
{"binder": "B6", "Fold change to WT": 0.04}
{"binder": "B7", "Fold change to WT": 0.04}
{"binder": "B8", "Fold change to WT": 0.05}
{"target": "T2, human CTLA4 (huCTLA4), full-length, …", "assay": "flow cytometry, CHO cells expressing huCTLA4", "units": {"MFI at 33.3 nM": "MFI"}}
{"binder": "B9", "MFI at 33.3 nM": 178}
{"binder": "B10", "MFI at 33.3 nM": 107}
{"target": "T6, human CTLA-4 (CTLA4), full-length, expressed on the surface of CHO cells (human, UniProt P16410 36-223)", "T6 construct": "also called huCTLA4", "T6 sequence (P16410 36-223)": "as the sequence (P16410 36-223) above", "assay": "flow cytometry on CTLA-4 CHO cells; MFI against WT CD80 ECD-Fc (R&D)", "units": {"Fold change to WT CD80": "fold"}}
{"binder": "B1", "Fold change to WT CD80": 1.71}
{"binder": "B2", "Fold change to WT CD80": 1.34}
{"binder": "B3", "Fold change to WT CD80": 0.1}
{"binder": "B4", "Fold change to WT CD80": 0.97}
{"binder": "B5", "Fold change to WT CD80": 0.02}
{"binder": "B6", "Fold change to WT CD80": 0.01}
{"binder": "B7", "Fold change to WT CD80": 0.08}
{"binder": "B8", "Fold change to WT CD80": 0.01}
{"target": "T4, human PD-L1 (huPD-L1), full-length, …", "assay": "flow cytometry, CHO cells expressing huPD-L1; MFI against WT CD80 of the table", "units": {"Fold change to WT CD80": "fold"}}
{"binder": "B9", "Fold change to WT CD80": 320}
{"binder": "B10", "Fold change to WT CD80": 320}
{"target": "T6, human CTLA-4 (CTLA4), full-length, …", "assay": "flow cytometry, CHO cells stably expressing human CTLA-4, 33.3 nM Fc fusion, PE anti-human Fc", "units": {"MFI at 33.3 nM": "MFI"}}
{"binder": "B1", "MFI at 33.3 nM": 305000}
{"binder": "B2", "MFI at 33.3 nM": 239000}
{"binder": "B3", "MFI at 33.3 nM": 18100}
{"binder": "B4", "MFI at 33.3 nM": 173000}
{"binder": "B5", "MFI at 33.3 nM": 3840}
{"binder": "B6", "MFI at 33.3 nM": 1080}
{"binder": "B7", "MFI at 33.3 nM": 14000}
{"binder": "B8", "MFI at 33.3 nM": 2110}
{"target": "T1, human PD-L1 (CD274), full-length, …", "assay": "flow cytometry, CHO cells stably expressing human PD-L1, 33.3 nM Fc fusion, PE anti-human Fc", "units": {"MFI at 33.3 nM": "MFI"}}
{"binder": "B1", "MFI at 33.3 nM": 19500}
{"binder": "B2", "MFI at 33.3 nM": 61700}
{"binder": "B3", "MFI at 33.3 nM": 77500}
{"binder": "B4", "MFI at 33.3 nM": 122000}
{"binder": "B5", "MFI at 33.3 nM": 76400}
{"binder": "B6", "MFI at 33.3 nM": 29000}
{"binder": "B7", "MFI at 33.3 nM": 78000}
{"binder": "B8", "MFI at 33.3 nM": 28000}
